In PMC12830901:

How the values were obtained:
Experiment in all cases: split reporter (BiFC, NanoBiT); receptor-SmBiT and LgBiT-mini-G, LgBiT-mini-GΔα5 or LgBiT-β-arrestin transiently co-transfected in HEK293T; live cells 48 h after transfection; NanoBiT PPI system (Promega), luminescence normalised by the expression of both constructs; in the mutant and ΔHA panels the mini-GΔα5 signal was subtracted and results given as a percentage of the reference construct
[1] = target: ADGRL4-CTF1 F409A (human) (UniProt Q9HBW9)
[2] = target: ADGRL4-CTF1 H408A (human) (UniProt Q9HBW9)
[3] = target: ADGRL4-CTF1 I411A (human) (UniProt Q9HBW9)
[4] = target: ADGRL4-CTF1 L412A (human) (UniProt Q9HBW9)
[5] = target: ADGRL4-CTF1 S414A (human) (UniProt Q9HBW9)

LgBiT-mini-Gq (mini-Gs/q version 70)
Gq activity, percent of wild-type CTF1 (% of wild-type CTF1) [1]: 12 | reduction of Gq activity, percent of wild-type CTF1 [2]: > 50% | reduction of Gq activity, percent of wild-type CTF1 [3]: > 50% | reduction of Gq activity, percent of wild-type CTF1 [4]: > 50% | reduction of Gq activity, percent of wild-type CTF1 [5]: > 50%
